Results reported in patent CN117088975A.

Molecular target: ALB蛋白(天然提取)
Assay: AMC sensor, antibody immobilised at 10 ug/ml, ALB in gradient dilution in PBST

Kd: 32.4 nM
koff: 0.000483 s⁻¹
kon: 14900 M⁻¹ s⁻¹
Substance: 对照 (antibody)
